Results on three molecules are retold here after publication PMC11359615, “Evaluation of ABD-Linked RM26 Conjugates for GRPR-Targeted Drug Delivery” (ACS Omega, 2024).

Non-standard residues stand in square brackets, D forms with d. maleimide‑DOTA = DOTA attached via maleimide to the Cys thiol; Sta = CC(C)C[C@H](N)[C@@H](O)CC(=O)O; PEG4 = NCCOCCOCCOCCOCCC(=O)O

The target of experiment [1] is T1, human serum albumin (human, UniProt P02768 25-609).
T1 construct: human serum albumin; also called HSA
The experiment in a line: SPR; Biacore 8K; HSA amine-coupled on CM5 chip (1250 RU); constructs at 50, 25, 12.5, 6.25 and 3.125 nM flowed over at 30 uL/min in PBS-T pH 7.4; 150 s association, 3000 s dissociation; 1:1 Langmuir fit. The conditions noted are these: both partners purified. (In general: In SPR one partner is held on a chip, and binding of the other changes the refractive index at the surface.)

Experiment [2] deals with T2, gastrin-releasing peptide receptor (human (endogenous in PC-3), UniProt P30550 1-384).
T2 construct: gastrin-releasing peptide receptor on GRPR-expressing PC-3 cells; also called GRPR; source: endogenous, on living PC-3 cells
T2 sequence (P30550 whole entry): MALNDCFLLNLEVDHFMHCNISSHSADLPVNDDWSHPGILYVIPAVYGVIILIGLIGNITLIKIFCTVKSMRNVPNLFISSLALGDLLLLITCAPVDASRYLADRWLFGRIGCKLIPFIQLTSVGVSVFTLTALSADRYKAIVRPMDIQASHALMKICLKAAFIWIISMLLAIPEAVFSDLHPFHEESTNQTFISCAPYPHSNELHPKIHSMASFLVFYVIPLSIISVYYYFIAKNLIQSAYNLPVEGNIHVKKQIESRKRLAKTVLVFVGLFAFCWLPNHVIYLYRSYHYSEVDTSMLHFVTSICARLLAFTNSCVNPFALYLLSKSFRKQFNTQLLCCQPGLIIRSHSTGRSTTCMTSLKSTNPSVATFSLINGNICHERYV
Kind of experiment: radioligand binding; real-time binding kinetics of 111In-labelled conjugates on living GRPR-expressing PC-3 cells; conditions in the Supporting Information. The conditions noted are these: one partner purified.

In experiment [3] the target is T3, human serum albumin (human, UniProt P02768 25-609).
T3 construct: human serum albumin (HSA), immobilised by amine coupling; also called HSA
Kind of experiment: SPR; Biacore 8K; HSA immobilised on a CM5 chip by amine coupling (1250 RU); constructs at 50, 25, 12.5, 6.25 and 3.125 nM flowed at 30 uL/min in PBS-T (PBS + 0.05% Tween-20, pH 7.4); 150 s association, 3000 s dissociation; 1:1 Langmuir fit. The conditions noted are these: both partners purified.

B1: ABD-RM26 Gen 2A conjugate (designed binder)
chain: MEDANSLAEAKVLANRELDKYGVSDFYC(maleimide‑DOTA)RLINKAKTVEGVEALKLHILAALPVDGSGSGSLPETGGG[PEG4][dF]QWAVGH[Sta]L-NH2
modifications: numbers in words are those of the source; also: DOTA loaded with 111In in cell assays
As for B1, the Kd (usually the free concentration of one partner at which half of the binding sites on the other are occupied at equilibrium, for simple one-to-one binding) with human serum albumin [1] is 0.048 nM. Further, in experiment [2], binding was put at a Kd of 120 ± 140 nM; the off-rate (koff) (as a rule, the first-order rate constant of dissociation) was 0.013 s⁻¹; the kon (as a rule, a measure of how fast the partners come together) amounted to 670000 M⁻¹ s⁻¹.

B2: ABD-Cys14 control (recombinant ABD035 with N-terminal MEDANS, a Cys, a C-terminal Sortase A recognition sequence and a His-tag) (designed binder)
chain: MEDANSLAEAKVLANRELDKYGVSDFYCRLINKAKTVEGVEALKLHILAALPVDGSGSGSLPETGG
notes: also called ABD control; MEDANS-ABD; source: E. coli BL21 (DE3)*, purified (IMAC, HisPur Cobalt resin)
For the molecule B2, in the experiment with human serum albumin [3], the off-rate (koff) amounted to 0.00024 s⁻¹ and the on-rate constant (kon) stood at 1.8e+07 M⁻¹ s⁻¹.

B3: ABD (albumin-binding domain; recombinant ABD035 with N-terminal MEDANS, a Cys and a C-terminal Sortase A recognition sequence and His-tag) (designed binder)
chain: MEDANSLAEAKVLANRELDKYGVSDFYCRLINKAKTVEGVEALKLHILAALPVDGSGSGSLPETGG
notes: also called ABD control; unconjugated ABD; source: E. coli BL21 (DE3)*, purified (IMAC, HisPur Cobalt resin); not shown: His6, C-terminal, kept
In the case of B3, the Kd in the experiment with human serum albumin [1] amounted to 0.013 nM. This counts as picomolar.
